From paper PMC10827139
Like-named read-outs stand apart in the source and are kept apart here.

Experiments:
Assay in all cases: crystal structure
[1] = biological target: His-ICP0 (HSV-1 strain KOS infected cell protein 0, residues A636-Q776) (herpes simplex virus 1 (HSV-1), strain KOS)
[2] = biological target: His-ICP0 (HSV-1 strain KOS infected cell protein 0, residues A636-Q776) (herpes simplex virus 1 (HSV-1), strain KOS); remark: listed apart in the source
[3] = biological target: proteolytic fragment of his-ICP0 391-776 (HSV-1 strain KOS) that crystallised (herpes simplex virus 1 (HSV-1), strain KOS)

His-ICP0 (HSV-1 strain KOS infected cell protein 0, residues A636-Q776) (domain or fragment)
stoichiometry N [1]: 4 | stoichiometry N [2]: 2

proteolytic fragment of his-ICP0 391-776 (HSV-1 strain KOS) that crystallised (domain or fragment)
stoichiometry N [3]: 2
